Laboratory results published in patent US20210246166A1 (Bayer, published 2021).
Numbered stars: 1 amine (or outer) side, 2 acyl side, 3 side chain; on linkers, the order of the positions; unused ones are H or OH. Bridge positions count the residues as written; N and C are the ends. Square brackets hold non-standard residues; d marks the D form. Ends that are not written are not given here. * marks the point of attachment. Freidinger's Lactam = (2S)-2-[(3R)-3-amino-2-oxopyrrolidin-1-yl]-4-methylpentanoic acid (Freidinger's lactam), CC(C)C[C@@H](C(=O)[*:2])N1CC[C@@H](N[*:1])C1=O; Ida = iminodiacetic acid, O=C(CN(CC(=O)[*:3])[*:1])[*:2]; Pro(3S,4R-methano) = O=C(O)[C@H]1NC[C@@H]2C[C@@H]21; Benzoyl(3-COOH) = O=C(O)c1cccc(C(=O)*)c1; Benzoyl(4-COOH) = O=C(O)c1ccc(C(=O)*)cc1; Oic = O=C(O)[C@@H]1C[C@@H]2CCCC[C@@H]2N1; tBuAla = CC(C)(C)C[C@H](N)C(=O)O; Pen = CC(C)(S)[C@H](N)C(=O)O; PEG2 = NCCOCCOCCC(=O)O; Sar = CNCC(=O)O

T1: recombinant rat MASP1 active protease (amino acids 302-704, C-terminal His Tag) (rat, UniProt Q8CHN8 302-704)
T1 sequence: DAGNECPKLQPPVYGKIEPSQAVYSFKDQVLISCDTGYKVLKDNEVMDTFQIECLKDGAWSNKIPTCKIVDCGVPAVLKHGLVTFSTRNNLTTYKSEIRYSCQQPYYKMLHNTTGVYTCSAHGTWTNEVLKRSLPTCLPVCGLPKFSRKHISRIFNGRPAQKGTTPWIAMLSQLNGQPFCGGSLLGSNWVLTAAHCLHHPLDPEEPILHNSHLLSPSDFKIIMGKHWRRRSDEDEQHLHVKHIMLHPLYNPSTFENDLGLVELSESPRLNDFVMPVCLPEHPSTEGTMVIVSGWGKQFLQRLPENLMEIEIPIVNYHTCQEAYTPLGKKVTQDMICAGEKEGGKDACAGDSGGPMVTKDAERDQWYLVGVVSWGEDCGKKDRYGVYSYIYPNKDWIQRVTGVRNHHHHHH


How the values were obtained:
[1] = target: T1, recombinant rat MASP1 active protease …; experiment: cell-based or functional assay
[2] = target: recombinant rat MASP2 active protease (amino acids 296-685, C-terminal His Tag) (rat, UniProt Q9JJS8 296-685); experiment: cell-based or functional assay
Sequence of recombinant rat MASP2 active protease (amino acids 296-685, C-terminal His Tag) (Q9JJS8 other isoform, or with tags, fused parts or gaps limits assumed): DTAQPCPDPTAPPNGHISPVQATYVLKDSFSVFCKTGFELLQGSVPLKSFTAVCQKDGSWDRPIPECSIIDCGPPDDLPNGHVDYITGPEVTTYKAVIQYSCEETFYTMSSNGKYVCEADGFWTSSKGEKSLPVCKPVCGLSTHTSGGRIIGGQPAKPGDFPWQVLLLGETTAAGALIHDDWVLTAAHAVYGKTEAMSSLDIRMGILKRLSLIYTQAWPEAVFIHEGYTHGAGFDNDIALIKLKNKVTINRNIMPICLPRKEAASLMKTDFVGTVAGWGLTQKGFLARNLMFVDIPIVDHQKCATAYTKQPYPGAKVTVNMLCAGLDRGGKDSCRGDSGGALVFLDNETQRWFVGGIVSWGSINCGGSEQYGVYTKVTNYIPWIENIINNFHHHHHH

Binder | rat MASP1 IC50 [1] | rat MASP2 IC50 [2]
[(S)‑Piperidine‑3‑Carboxylic Acid]ICSRSLP[Oic]I[Pen]IPD-OH (disulfide 3-11) [Example 489: ((S)-Piperidine-3-Carboxylic Acid)-IC+SRSLP-(Oic)-I-(Pen)+IPD-OH] | 42 nM | 22 nM
{Benzoyl(4-COOH)}-GICSRSLP[Oic]I[Pen]IPD-OH (disulfide 3-11; SMILES CC[C@H](C)[C@H](NC(=O)CNC(=O)c1ccc(C(=O)O)cc1)C(=O)N[C@H]1CSSC(C)(C)[C@@H](C(=O)N[C@H](C(=O)N2CCC[C@H]2C(=O)N[C@@H](CC(=O)O)C(=O)O)[C@@H](C)CC)NC(=O)[C@H]([C@@H](C)CC)NC(=O)[C@@H]2C[C@@H]3CCCC[C@@H]3N2C(=O)[C@@H]2CCCN2C(=O)[C@H](CC(C)C)NC(=O)[C@H](CO)NC(=O)[C@H](CCCNC(=N)N)NC(=O)[C@H](CO)NC1=O) [Example 490: (4-Carboxybenzoic acid)-GIC+SRSLP-(Oic)-I-(Pen)+IPD-OH] | 12.5 nM | 15 nM
{Benzoyl(3-COOH)}-GICSRSLP[Oic]I[Pen]IPD-OH (disulfide 3-11; SMILES CC[C@H](C)[C@H](NC(=O)CNC(=O)c1cccc(C(=O)O)c1)C(=O)N[C@H]1CSSC(C)(C)[C@@H](C(=O)N[C@H](C(=O)N2CCC[C@H]2C(=O)N[C@@H](CC(=O)O)C(=O)O)[C@@H](C)CC)NC(=O)[C@H]([C@@H](C)CC)NC(=O)[C@@H]2C[C@@H]3CCCC[C@@H]3N2C(=O)[C@@H]2CCCN2C(=O)[C@H](CC(C)C)NC(=O)[C@H](CO)NC(=O)[C@H](CCCNC(=N)N)NC(=O)[C@H](CO)NC1=O) [Example 491: (3-Carboxybenzoic acid)-GIC+SRSLP-(Oic)-I-(Pen)+IPD-OH] | 20 nM | 23 nM
[Sar]ICSRSLP[Oic]I[Pen]IPT-OH (disulfide 3-11; N-terminus assumed; SMILES CC[C@H](C)[C@H](NC(=O)CNC)C(=O)N[C@H]1CSSC(C)(C)[C@@H](C(=O)N[C@H](C(=O)N2CCC[C@H]2C(=O)N[C@H](C(=O)O)[C@@H](C)O)[C@@H](C)CC)NC(=O)[C@H]([C@@H](C)CC)NC(=O)[C@@H]2C[C@@H]3CCCC[C@@H]3N2C(=O)[C@@H]2CCCN2C(=O)[C@H](CC(C)C)NC(=O)[C@H](CO)NC(=O)[C@H](CCCNC(=N)N)NC(=O)[C@H](CO)NC1=O) [Example 492: ((N-Me)G)-IC+SRSLP-(Oic)-I-(Pen)+IPT-OH] | 65 nM | 81 nM
[Sar]ICSRSLP[Oic]I[Pen]IPY-OH (disulfide 3-11; N-terminus assumed; SMILES CC[C@H](C)[C@H](NC(=O)CNC)C(=O)N[C@H]1CSSC(C)(C)[C@@H](C(=O)N[C@H](C(=O)N2CCC[C@H]2C(=O)N[C@@H](Cc2ccc(O)cc2)C(=O)O)[C@@H](C)CC)NC(=O)[C@H]([C@@H](C)CC)NC(=O)[C@@H]2C[C@@H]3CCCC[C@@H]3N2C(=O)[C@@H]2CCCN2C(=O)[C@H](CC(C)C)NC(=O)[C@H](CO)NC(=O)[C@H](CCCNC(=N)N)NC(=O)[C@H](CO)NC1=O) [Example 493: ((N-Me)G)-IC+SRSLP-(Oic)-I-(Pen)+IPY-OH] | 44 nM | 49 nM
[Sar]ICSRSLP[Oic]I[Pen]IPDA-OH (disulfide 3-11; N-terminus assumed; SMILES CC[C@H](C)[C@H](NC(=O)CNC)C(=O)N[C@H]1CSSC(C)(C)[C@@H](C(=O)N[C@H](C(=O)N2CCC[C@H]2C(=O)N[C@@H](CC(=O)O)C(=O)N[C@@H](C)C(=O)O)[C@@H](C)CC)NC(=O)[C@H]([C@@H](C)CC)NC(=O)[C@@H]2C[C@@H]3CCCC[C@@H]3N2C(=O)[C@@H]2CCCN2C(=O)[C@H](CC(C)C)NC(=O)[C@H](CO)NC(=O)[C@H](CCCNC(=N)N)NC(=O)[C@H](CO)NC1=O) [Example 494: ((N-Me)G)-IC+SRSLP-(Oic)-I-(Pen)+IPDA-OH] | 38 nM | 62 nM
[Sar]ICSRSLP[Oic]I[Pen]IPG[dD]-OH (disulfide 3-11; N-terminus assumed; SMILES CC[C@H](C)[C@H](NC(=O)CNC)C(=O)N[C@H]1CSSC(C)(C)[C@@H](C(=O)N[C@H](C(=O)N2CCC[C@H]2C(=O)NCC(=O)N[C@H](CC(=O)O)C(=O)O)[C@@H](C)CC)NC(=O)[C@H]([C@@H](C)CC)NC(=O)[C@@H]2C[C@@H]3CCCC[C@@H]3N2C(=O)[C@@H]2CCCN2C(=O)[C@H](CC(C)C)NC(=O)[C@H](CO)NC(=O)[C@H](CCCNC(=N)N)NC(=O)[C@H](CO)NC1=O) [Example 495: ((N-Me)G)-IC+SRSLP-(Oic)-I-(Pen)+IPGd-OH] | 45 nM | 66 nM
[Sar]ICSRS[tBuAla]PPI[Pen]IP-{PEG5‑CH2CO2H(18 atoms)-OH} (disulfide 3-11) [Example 496: ((N-Me)G)-IC+SRS-((tBu)A)-PPI-(Pen)+IP-(PEG5-CH2CO2H(18 atoms))-OH] | 31 nM | 31 nM
[Sar]ICSRS[tBuAla]PPI[Pen]IP[Sar][Sar][Sar]-OH (disulfide 3-11; N-terminus assumed; SMILES CC[C@H](C)[C@H](NC(=O)CNC)C(=O)N[C@H]1CSSC(C)(C)[C@@H](C(=O)N[C@H](C(=O)N2CCC[C@H]2C(=O)N(C)CC(=O)N(C)CC(=O)N(C)CC(=O)O)[C@@H](C)CC)NC(=O)[C@H]([C@@H](C)CC)NC(=O)[C@@H]2CCCN2C(=O)[C@@H]2CCCN2C(=O)[C@H](CC(C)(C)C)NC(=O)[C@H](CO)NC(=O)[C@H](CCCNC(=N)N)NC(=O)[C@H](CO)NC1=O) [Example 497: ((N-Me)G)-IC+SRS-((tBu)A)-PPI-(Pen)+IP-((N-Me)G)-((N-Me)G)-((N-Me)G)-OH] | 58 nM | 39 nM
[Sar]ICSRS[tBuAla]PPI[Pen]IP-{PEG2-OH} (disulfide 3-11) [Example 498: ((N-Me)G)-IC+SRS-((tBu)A)-PPI-(Pen)+IP-(PEG1(10 atoms))-OH] | 44 nM | 42 nM
[Sar]ICSRS[tBuAla]P[Pro(3S,4R-methano)]I[Pen]IPD-OH (disulfide 3-11; N-terminus assumed; SMILES CC[C@H](C)[C@H](NC(=O)CNC)C(=O)N[C@H]1CSSC(C)(C)[C@@H](C(=O)N[C@H](C(=O)N2CCC[C@H]2C(=O)N[C@@H](CC(=O)O)C(=O)O)[C@@H](C)CC)NC(=O)[C@H]([C@@H](C)CC)NC(=O)[C@@H]2[C@H]3C[C@H]3CN2C(=O)[C@@H]2CCCN2C(=O)[C@H](CC(C)(C)C)NC(=O)[C@H](CO)NC(=O)[C@H](CCCNC(=N)N)NC(=O)[C@H](CO)NC1=O) | 485 nM | 253 nM
[Sar]ICSRSLP[Oic]I[Pen]IP[Freidinger's Lactam]-OH (disulfide 3-11; N-terminus assumed; SMILES CC[C@H](C)[C@H](NC(=O)CNC)C(=O)N[C@H]1CSSC(C)(C)[C@@H](C(=O)N[C@H](C(=O)N2CCC[C@H]2C(=O)N[C@@H]2CCN([C@@H](CC(C)C)C(=O)O)C2=O)[C@@H](C)CC)NC(=O)[C@H]([C@@H](C)CC)NC(=O)[C@@H]2C[C@@H]3CCCC[C@@H]3N2C(=O)[C@@H]2CCCN2C(=O)[C@H](CC(C)C)NC(=O)[C@H](CO)NC(=O)[C@H](CCCNC(=N)N)NC(=O)[C@H](CO)NC1=O) [Example 527: ((N-Me)G)-IC+SRSLP-(Oic)-I-(Pen)+IP-(Freidinger's Lactam)-OH] | 240 nM | 42 nM
[dP]ICSRSLP[Oic]I[Pen]IP[Ida]-OH (disulfide 3-11; also: HCl salt) [Example 528: pIC+SRSLP-(Oic)-I-(Pen)+IP-(Ida)-OH (HCl salt)] | 420 nM | 8.2 nM
